We go through two molecules from publication PMC7614001.

The target of assay [1] is T1, ALK2 ECD (Homo sapiens), Q04771.
T1 chain: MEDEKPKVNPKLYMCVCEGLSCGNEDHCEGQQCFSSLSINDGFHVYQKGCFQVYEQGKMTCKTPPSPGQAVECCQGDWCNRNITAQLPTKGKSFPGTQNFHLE
Put plainly: BLI. The following applies: remark: other sources report otherwise.

In assay [2] the target is T2, ALK3 ECD (Homo sapiens), P36894.
T2 chain: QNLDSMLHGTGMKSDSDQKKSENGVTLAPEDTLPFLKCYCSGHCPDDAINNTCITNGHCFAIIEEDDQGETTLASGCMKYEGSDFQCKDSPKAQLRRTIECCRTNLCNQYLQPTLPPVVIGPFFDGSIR
Description: BLI. The following applies: remark: other sources report otherwise.

B1: BMP-9, Q9UK05 (protein)
chain: SAGAGSHCQKTSLRVNFEDIGWDSWIIAPKEYEAYECKGGCFFPLADDVTPTKHAIVQTLVHLKFPTKVGKACCVPTKLSPISVLYKDDMGVPTLKYHYEGMSVAECGCR
As for B1, the dissociation constant Kd – broadly, the free concentration of one partner at which half of the binding sites on the other are occupied at equilibrium, for simple one-to-one binding – in assay [1] turned out to be 133 nM.

B2: BMP-7, P18075 (protein)
chain: STGSKQRSQNRSKTPKNQEALRMANVAENSSSDQRQACKKHELYVSFRDLGWQDWIIAPEGYAAYYCEGECAFPLNSYMNATNHAIVQTLVHFINPETVPKPCCAPTQLNAISVLYFDDSSNVILKKYRNMVVRACGCH
For the molecule B2, the Kd is 19 nM in assay [2] and 18.4 nM in assay [1].
